The results in this text go back to PMC7252695.

In data set [1] the target is T1, GST-TEK (Arabidopsis thaliana) (UniProt Q9SJG4).
T1 sequence: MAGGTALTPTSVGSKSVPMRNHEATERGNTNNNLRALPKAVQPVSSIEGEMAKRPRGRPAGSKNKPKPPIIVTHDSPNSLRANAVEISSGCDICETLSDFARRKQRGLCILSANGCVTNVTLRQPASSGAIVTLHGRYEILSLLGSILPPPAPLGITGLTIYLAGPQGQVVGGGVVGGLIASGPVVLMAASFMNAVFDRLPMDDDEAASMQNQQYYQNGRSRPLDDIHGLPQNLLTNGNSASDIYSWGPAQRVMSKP
Description: EMSA. Particulars: EMSA according to manufacturer's instructions (Thermo Scientific); buffer, salt, pH and temperature not stated. On the technique in general: A gel shift assay detects complexes by their altered migration in electrophoresis.

For data set [2], the target named is T1, GST-TEK (Arabidopsis thaliana). Description: competition. Particulars: EMSA according to manufacturer's instructions (Thermo Scientific); buffer, salt, pH and temperature not stated.

As to “GCCCATATATAGTATCTTCCGCTGTTGTATATCTTGAGCAGCTTGAGGAAGCCTTTGCAAAAAAATAGAGTGAATTTTGAGTACAGTATGAATATCATTCAACAACATTTTCCATCCAAGCGACTTAGAAAATAAAATTTTGTCAGCTACCTTAAACTGTGTTTACGTCCTAAAAATTTGCACCAA (double strand) [CalS5 P11 fragment]”, the binding result in data set [1] is on record as “binds”. As for “GCCCATATATAGTATCTTCCGCTGTTGTATATCTTGAGCAGCTTGAGGAAGCCTTTGCAAAAAAATAGAGTGAATTTTGAGTACAGTATGAATATCATTCAACAACATTTTCCATCCAAGCGACTTAGAAAATAAAATTTTGTCAGCTACCTTAAACTGTGTTTACGTCCTAAAAATTTGCACCAA (double strand) [CalS5 P11 unlabeled competitor]”, the binding result in data set [2] is reported as “binds”.
